Results reported in patent US20180105585A1.

Tests used:
[1] = biological target: Biotinylated human Amyloid beta 1-42 peptide (human); assay: HTRF epitope competition, purified scFv against Abet0042 IgG (competitor) for biotinylated human Amyloid beta 1-42
[2] = biological target: Biotinylated human Amyloid beta 1-42 peptide (human); assay: SPR (BIAcore T-100), biotinylated peptide on SA chip, scFv 12.5-400 nM, 1:1 Langmuir

Chain of Biotinylated human Amyloid beta 1-42 peptide (human) (peptide, as listed by the source): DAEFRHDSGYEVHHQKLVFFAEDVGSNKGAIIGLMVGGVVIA

| IC50 [1] [nM] | Kd [2] [nM] | koff [2] [s⁻¹] | kon [2] [M⁻¹ s⁻¹] | Binder |
| --- | --- | --- | --- | --- |
| 159 | – | – | – | Abet0007 scFv (scFv, part only; not given: Linker, tags and domain order, V domains shown, not shown: another chain or arm of the molecule; small tags and cut ends) VH: EVQLLESGGGLVQPGGSLRLSCAASGFTFSVYTMWWVRQAPGKGLEWVSVIGSSGGTTVYADSVKGRFTISRDNSKNTLYLQMNSLRAEDTAVYYCAREGQQLVRPYYYYGMDVWGQGTLVTVSS VL: QSVLTQPPSVSVSPGQTASITCSGHNLEDKFASWYQQKSGQSPVLVIYRDDKRPSGIPERFSASNSGHTATLTISGTQATDEADYYCQAQDSTTRVFGGGTKLTVL |
| 5.5 | 33.2 | 0.00666 | 201000 | Abet0144 scFv (scFv, part only; not given: Linker, tags and domain order, V domains shown, not shown: another chain or arm of the molecule; small tags and cut ends) VH: EVQLLESGGGLVQPGGSLRLSCAASGFTFSVYTMWWVRQAPGKGLEWVSVIGSSGGTTVYADSVKGRFTISRDNSKNTLYLQMNSLRAEDTAVYYCAREWMDHSRPYYYYGMDVWGQGTLVTVSS VL: QSVLTQPPSVSVSPGQTASITCSGHNLEDKFASWYQQKSGQSPVLVIYRDDKRPSGIPERFSASNSGHTATLTISGTQATDEADYYCQAQDSTTRVFGGGTKLTVL |
